# B1: Hu2B5.9: humanized 2B5-8.0; VH SEQ ID NO 76, VL SEQ ID NO 77 (antibody, V domains shown)
# VH: EVQLVQSGAEVKKPGASVKVSCKASGYTFTKYWLGWVRQAPGQGLEWMGDIYPGYDYTHYNEKFKDRVTMTTDTSTSTAYMELRSLRSDDTAVYYCARSDGSSTYWGQGTLVTVSS
# VL: DIVMTQTPLSLPVTPGEPASISCTSSQNIVHSNGNTYLEWYLQKPGQSPQLLIYKVSNRFSGVPDRFSGSGSGTDFTLKISRVEAEDVGVYYCFQVSHVPYTFGGGTKVEIKR
# Assays:
# ^3H-PGE2 ELISA (binding) = assay: ^3H-PGE2 ELISA (binding)
# Procedure: Alternatively, prostaglandin binding was determined using a ^3H-PGE2 ELISA. Plates were coated at 50 μL/well with 5 μg/ml of goat anti-human IgG (Fc) (Thermo Scientific # 31170, Hudson, N.H.) or goat anti-mouse IgG (Fc) (Thermo Scientific # 31125, Hudson, N.H.) in PBS and incubated overnight at 4° C. The following day, plates were flicked and blotted dry. Plates were blocked with 200 μL/well of Superblock (Thermo Scientific # 37515, Hudson, N.H.) for 1 hour at room temperature. Plates were flicked and blotted dry. Monoclonal antibodies were diluted to 0.04 μg/ml in phosphate buffer solution with Tween 20 (PBST) (Abbott Bioresearch Center, Worcester, Mass.) and 10% Superblock and 50 μL of each antibody was added to each well of the pre-blocked ELISA plate at 2 ng/well and incubated for 1 hour at room temperature. Wells were washed 3 times with PBS+0.1% Tween-20. A serial 3-fold titration of ^3H-PGE2 (Perkin Elmer # NET-428, Waltham, Mass.) was prepared in PBST/10% Superblock. Fifty microliters of the ^3H-PGE2 solution was added to each well of the plate and incubated for 1 hour at room temperature. […] Plates were read using a TopCount reader (Perkin Elmer, Waltham, Mass.) with a 5 minute count delay. An EC50 number was determined using GraphPad Prism 5 (GraphPad Software, La Jolla, Calif.).
# [1] = Accelerated stability screening monitored by SEC; type: physicochemical; settings: for Aggregate (%) / Fragment (%) / Monomer (%): SEC
# Procedure: Size exclusion chromatography was used to separate proteins based on size. Proteins are carried in an aqueous mobile phase and through a porous stationary phase resin packed in a column. The retention time in the column is a function of the hydrodynamic size of the protein and the size of the pores in the packed resin bed. Smaller molecules can penetrate into smaller pores in the resin and are retained longer than larger molecules. Upon elution from the column the proteins are detected by UV absorbance. The SEC method used a TSK gel guard (TOSOH Biosciences, Montgomeryville, Pa., cat. no. 08543) and a TSK gel G3000SWxL (TOSOH Biosciences, Montgomeryville, Pa., cat. no. 08541). The mobile phase was 100 mM Na2HPO4, 200 mM Na2SO4, pH 7.0. The flow rate was 0.3 mL/minute. Injection volume was 20 μL of 1 mg/mL sample. The column temperature was room temperature. The autosampler temperature was 2-8° C. The total run time was 50 minutes. The detection was based on UV absorbance at 214 nm wavelength, with band width set at 8 nm, using reference wavelength at 360 nm with band width 100 nm.
# (§1) The stability of a series of clones (i.e., anti-PGE2 antibodies) of the parent anti-PGE2 antibody was assessed by using intrinsic thermodynamic clone stability determination using DSC (0.79 mg/mL clone concentration, formulated at pH 6 in a 10 mM citrate, 10 mM phosphate buffer) and by accelerated stability screening (0.79 mg/mL clone concentration, formulated at pH 6 in a 10 mM citrate, 10 mM phosphate buffer, for 7 days at 50° C.) where clone stability was monitored with SEC (Table 15).
# [2] = tested on: PGE2 induced Ca++ influx in HEK293 Gα16 cells stably transfected with human EP4 receptor; assay: EP4 bioassay: PGE2 induced Ca++ flux (FLIPR); type: cell-based; settings: PGE2 25 pm; read-out: IC50 (pM) @ PGE2 25 pm Cellular Potency in EP4 assay
# Procedure: The ability of anti-PGE2 antibody to inhibit cellular response of PGE2 in vitro was determined in a Ca^++ flux assay in HEK293 Gα16 cells (Abbott Bioresearch Center, Worcester, Mass.) stably transfected with human EP4 receptor. In brief, an expression plasmid encoding one of the four human PGE2 receptors, EP4, and an expression plasmid encoding Gα16, were co-transfected into human embryonic kidney cell line 293 cells (ATCC# CRL1573, Manassas, Va.). The stable clones co-expressing both human EP4 and Gα16 protein were selected using standard methods (Joseph Sambrook and David W. Russell. Molecular Cloning: A Laboratory Manual Publisher. Published by Cold Spring Harbor Laboratory Press, 2001) and used for the EP4 bioassay. The HEK293 Gα16 cells were plated in black/clear poly-D-lysine plates (Corning #3667, Corning, N.Y.) and incubated with a Ca^++-sensitive dye (Molecular Devices, Sunnyvale, Calif.) for 90 minutes. Stock PGE2 (in 200 proof ethanol) was diluted with FLIPR buffer [containing 1×HBSS (Invitrogen Carlsbad, Calif.), 20 mM HEPES (Invitrogen Carlsbad, Calif.), 0.1% BSA (Sigma, St. Louis, Mo.) and 2.5 mM Probenecid (Sigma, St. Louis, Mo.)]. Anti-PGE2 antibodies or isotype matched control antibodies were also pre-diluted in FLIPR buffer. 25 μl of PGE2 or pre-incubated PGE2/antibody mixture was added to the wells pre-plated with cells. The dose response of PGE2 was determined on a serial titration of PGE2 and using FLIPR1 or Tetra (Molecular Devices, Sunnyvale, Calif.) and EC50 was determined using GraphPad Prism 5 (GraphPad Software, La Jolla, Calif.). […] Ca^++ flux was monitored using FLIPR1 and data was analyzed using GraphPad Prism 5 (GraphPad Software, La Jolla, Calif.).
# [3] = Capillary zone electrophoresis; type: physicochemical; settings: running buffer pH 5.5; compared with Hu2B5.2, Hu2B5.4, Hu2B5.6, Hu2B5.8
# From the text: Capillary zone electrophoresis is a capillary electrophoresis method in which the capillary is filled with buffer and the separation mechanism is based on differences in electrophoretic mobility of the analyte through the buffer. The electrophoretic mobility of a molecule is related to the charge-to-size ratio. A Beckman-Coulter ProteomeLab PA 800 (Beckman Coulter, Fullerton, Calif.) was used for the CZE analysis. A neutral capillary (eCAP neutral, 56 cm total length, 50 μm I. D. Beckman-Coulter, P/N 477441, Fullerton, Calif.) was used. The method used a 30.2 cm capillary with a detection window 20.2 cm from the sample introduction inlet. The running buffer was 100 mM EACA (6-Aminocaproic acid, Sigma A7824-100 G, St. Louis, Mo.) with 0.1% MC (from 1% Methylcellulose solution, Convergent Bioscience, cat# 101876, Toronto, ON, Canada), pH 5.5.
# [4] = Intrinsic thermodynamic stability by DSC; type: physicochemical
# Procedure: The thermal stability of the anti-PGE2 antibodies was assessed using a DSC instrument. The DSC instrument used was an automated VP-DSC equipment with Capillary Cell (Microcal, GE Healthcare Ltd./Microcal, Buckinghamshire, UK). Unfolding of molecules was studied applying a 1° C./minute scan rate over a 25° C.-95° C. temperature range for samples at 1 mg/mL. Additional measurement parameters applied were a fitting period of 16 seconds, a pre-scan wait time of 10 minutes, and measurements were performed in none-feedback mode. Per individual measurement, 420 μL of sample/blank were filled into the DSC measurement sample holder, with a plate fill scheme as provided below. The thermograms obtained were fitted to a non two state model to obtain the midpoint temperatures and enthalpies of the different transitions.
# as §1
molecule,measurement,setting,value
B1,IC50,^3H-PGE2 ELISA (binding),0.704 nM
same,monomer levels after 7 days accelerated stability screening,[1]; 7 days at 50° C.,highest monomer levels
same,Aggregate (%),[1]; 7 days storage at 50° C.,1.9559%
same,Fragment (%),[1]; 7 days storage at 50° C.,3.4127%
same,Monomer (%),[1]; 7 days storage at 50° C.,94.6313%
same,Fragment (%),[1]; start of stability study,2.541%
same,Monomer (%),[1]; start of stability study,95.6031%
same,Aggregate (%),"[1]; start of stability study, 0.79 mg/mL, pH 6",1.8559%
same,IC50,[2],125 pM
same,migration in capillary zone electrophoresis,[3],migrated more basic
same,Tm1 (° C.),"[4]; 0.79 mg/mL, pH 6, 10 mM citrate, 10 mM phosphate",73.235 °C
same,Tm2 (° C.),[4]; same buffer,75.965 °C
same,Tm3 (° C.),[4]; same buffer,83.04 °C

# Source: US8624002B2, “Prostaglandin E2 binding proteins and uses thereof” (AbbVie, Inc., priority 2008, dated 2014)
